Results on 13 molecules are retold here after US20190062453A1 (Hoffmann-La Roche, published 2019).

Substitutions are numbered along the chain they refer to. Names and notes keep the numbering of the source.

The labels stand for the following.
T1: Recombinant human DcR2-Fc (human, UniProt Q9UBN6 56-211)
T1 construct: bought for the phage antibodies; also called huDcR2Fc; human DcR2 (TNFRSF10D); not shown: Fc part of the chimera
T1 sequence (looked up): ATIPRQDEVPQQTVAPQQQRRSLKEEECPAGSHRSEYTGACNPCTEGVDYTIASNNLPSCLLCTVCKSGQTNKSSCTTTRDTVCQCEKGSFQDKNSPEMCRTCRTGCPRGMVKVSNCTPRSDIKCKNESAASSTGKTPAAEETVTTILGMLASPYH

T2: Recombinant human DcR1-Fc (human, UniProt O14798 26-221)
T2 construct: bought; also called huDcR1Fc; human DcR1 (TNFRSF10C); Fc part of the bought chimera not given
T2 sequence (looked up): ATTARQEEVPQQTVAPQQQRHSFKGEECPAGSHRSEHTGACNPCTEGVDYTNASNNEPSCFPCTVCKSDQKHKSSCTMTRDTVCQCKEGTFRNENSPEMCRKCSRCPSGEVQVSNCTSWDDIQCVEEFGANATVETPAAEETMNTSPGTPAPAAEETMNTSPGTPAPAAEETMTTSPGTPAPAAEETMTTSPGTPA

T3: Recombinant human OPG-Fc (human, UniProt O00300 22-194)
T3 construct: bought; also called rhuOPGFc; human Osteoprotegerin; Fc part of the bought chimera not given
T3 sequence (looked up): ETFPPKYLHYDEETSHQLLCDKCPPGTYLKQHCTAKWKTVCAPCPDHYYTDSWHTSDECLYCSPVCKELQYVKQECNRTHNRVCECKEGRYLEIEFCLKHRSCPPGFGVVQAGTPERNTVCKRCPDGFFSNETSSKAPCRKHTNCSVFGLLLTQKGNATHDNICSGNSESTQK

B1: DR5TAA-0077 (bispecific antibody, human IgG1, kappa)
heavy: not shown
chain: not shown
light: EIVLTQSPGTLSLSPGERATLSCRASQSVSRSYLAWYQQKPGQAPRLLIIGASTRATGIPDRFSGSGSGTDFTLTISRLEPEDFAVYYCQQGQVIPPTFGQGTKVEIKRTVAAPSVFIFPPSDEQLKSGTASVVCLLNNFYPREAKVQWKVDNALQSGNSQESVTEQDSKDSTYSLSSTLTLSKADYEKHKVYACEVTHQGLSSPVTKSFNRGEC
notes: also called format C
B2: DR5TAA-0078 (bispecific antibody)
heavy: not shown
chain: EIVLTQSPGTLSLSPGERATLSCRASQSVSSSYLAWYQQKPGQAPRLLIYGASSRATGIPDRFSGSGSGTDFTLTISRLEPEDFAVYYCQQGTTHPITFGQGTKVEIKSSASTKGPSVFPLAPSSKSTSGGTAALGCLVKDYFPEPVTVSWNSGALTSGVHTFPAVLQSSGLYSLSSVVTVPSSSLGTQTYICNVNHKPSNTKVDKKVEPKSCD
light: B1 light
notes: also called format D
B3: DR5TAA-0081 (bispecific antibody, human IgG1, kappa, L234A L235A)
heavy: not shown
light: B1 light with R31S, I50Y, T54S, Q93T, V94T, I95H, P97I
chain: EVQLLESGGGLVQPGGSLRLSCAASGFTFSSHAMSWVRQAPGKGLEWVSAIWASGEQYYADSVKGRFTISRDNSKNTLYLQMNSLRAEDTAVYYCAKGWLGNFDYWGQGTLVTVSSASVAAPSVFIFPPSDEQLKSGTASVVCLLNNFYPREAKVQWKVDNALQSGNSQESVTEQDSKDSTYSLSSTLTLSKADYEKHKVYACEVTHQGLSSPVTKSFNRGEC
notes: also called format F
B4: DR5(5E11)-28H1 VHCL 2 + 2 P329GLALA (bispecific antibody, human IgG1, kappa, L234A L235A)
heavy: not shown
light: B1 light with R31S, I50Y, T54S, Q93T, V94T, I95H, P97I
chain: B2 chain with S31R, Y50I, S54T, T93Q, T94V, H95I, I97P
notes: C-terminal lysine removed, L234A L235A P329G in Fc; also called DR5TAA-0057; format A
B5: DR5(5E11)-28H1 VHCL 2 + 2 (bispecific antibody, human IgG1, kappa)
heavy: not shown
light: B1 light with R31S, I50Y, T54S, Q93T, V94T, I95H, P97I
chain: B2 chain with S31R, Y50I, S54T, T93Q, T94V, H95I, I97P
notes: also called DR5TAA-0030
B6: DR5TAA-0035 (bispecific antibody, human IgG1, kappa)
heavy: not shown
light: ADIVMTQTASPVSAAVGGTVTINCQASQSISSSYVSWYQQKPGQPPKLLIYKASTLASGVPSRFSGSGSGTQLSLTIRGVQCDDAATYYCLYGYSDVSSSEYVFGGGTEVVVRRTVAAPSVFIFPPSDEQLKSGTASVVCLLNNFYPREAKVQWKVDNALQSGNSQESVTEQDSKDSTYSLSSTLTLSKADYEKHKVYACEVTHQGLSSPVTKSFNRGEC
chain: B2 chain with S31R, Y50I, S54T, T93Q, T94V, H95I, I97P
notes: also called 0016-28H1
B7: 4G8 IgG (antibody, V domains shown)
VH: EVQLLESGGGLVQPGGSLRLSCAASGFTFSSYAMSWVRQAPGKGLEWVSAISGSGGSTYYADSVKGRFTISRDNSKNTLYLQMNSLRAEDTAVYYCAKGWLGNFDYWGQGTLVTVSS
VL: EIVLTQSPGTLSLSPGERATLSCRASQSVSRSYLAWYQQKPGQAPRLLIIGASTRATGIPDRFSGSGSGTDFTLTISRLEPEDFAVYYCQQGQVIPPTFGQGTKVEIK
notes: also called FAP (4G8) IgG molecule; parental 4G8 IgG
B8: 4G8_scFab_HC (bispecific antibody, human IgG1, kappa, lambda)
heavy: not shown
light: SELTQDPAVSVALGQTVRITCSGDSLRSYYASWYQQKPGQAPVLVIYGANNRPSGIPDRFSGSSSGNTASLTITGAQAEDEADYYCNSADSSGNHVVFGGGTKLTVLGQPKAAPSVTLFPPSSEELQANKATLVCLISDFYPGAVTVAWKADSSPVKAGVETTTPSKQSNNKYAASSYLSLTPEQWKSHRSYSCQVTHEGSTVEKTVAPTECS
notes: also called GA803_A01_B02A_001; Drozitumab-scFab-FAP
B9: 5E11 (antibody, V domains shown)
VH: not shown
VL: B7 VL with R31S, I50Y, T54S, Q93T, V94T, I95H, P97I
notes: Phage display Fab converted into hu IgG1, kappa light chain; also called clone 5E11
B10: 20F2 (antibody, IgG1, V domains shown)
VH: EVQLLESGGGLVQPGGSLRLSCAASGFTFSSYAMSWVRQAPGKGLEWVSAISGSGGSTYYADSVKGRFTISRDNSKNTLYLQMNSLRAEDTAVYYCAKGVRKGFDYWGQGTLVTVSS
VL: B7 VL with R31S, I50Y, T54S, Q93E, V94S, I95P
notes: hu IgG1; also called DR5 (20F2)
B11: 21H3 (antibody, IgG1, V domains shown)
VH: not shown
VL: B7 VL with R31S, I50Y, T54S, Q93S, V94Q, I95P, P97I
notes: hu IgG1
B12: 22E9 (antibody, IgG1, V domains shown)
VH: not shown
VL: B7 VL with R31S, I50Y, T54S, Q93S, V94N, I95Q, P97V
notes: hu IgG1
B13: 18F11 (antibody, IgG1, V domains shown)
VH: not shown
VL: B7 VL with R31S, I50Y, T54S, V94L, I95P, P97I
notes: hu IgG1

The first experiment concerns the target T4, Human FAP ectodomain + poly-lys-tag + his6-tag (human, UniProt Q12884 27-760).
T4 construct: also called recombinant soluble human FAP; hFAP
Nature of the experiment: SPR, bispecific captured by anti human IgG (Fc), human FAP 5 µg/ml.
As for B1, the “FAP [RU max]” value came to 41.9 RU.

As to B2, the “FAP [RU max]” value was determined as 38.4 RU.

Regarding B3, the “FAP [RU max]” value is 7.2 RU.

Take B4: the “FAP [RU max]” value was 40.8 RU.

A further experiment has as its target murine FAP on recombinant 3T3 cells (murine, UniProt P97321 1-761). Nature of the experiment: cell-based or functional assay.
Regarding B5, the “Cell Death Detection ELISA, DLD-1 cells with 3T3 cells expressing murine FAP” value (shortened to “Cell Death Detection ELISA, DLD-1 cells”) was found to be 10 fold.

For B6, the “Cell Death Detection ELISA, DLD-1 cells” value came to 10 fold.

Take B4: the “Cell Death Detection ELISA, DLD-1 cells” value is 10 fold.

In the next experiment the target is T5, human FAP on cells (human, UniProt Q12884 1-760).
T5 construct: whole, on cells; also called human FAP expressed on recombinant HEK293 cells; FAP on GM05389 fibroblasts
Nature of the experiment: FACS on recombinant HEK293 cells expressing human FAP.
As to B7, the binding result is reported as “binds”.

As to B8, the binding result is “binds”.

In a further experiment the target is T6, human DR5 (recombinant, fusion format not stated for the assay) (human, UniProt O14763 56-207).
T6 construct: all antigen constructs carry ECD aa 56-207; also called hu DR5; huDR5
Nature of the experiment: SPR (Biacore), affinity, 2+2 captured and DR5 injected. (In general: Surface plasmon resonance follows binding to a sensor surface in real time, without labels.)
Usually Kd stands for the constant that tells how readily two partners part at equilibrium. For B6, the Kd amounted to 5.1 nM.

The next experiment has as its target T7, Cynom. DR5 (ECD)-AcTev-Fc-Avi (cynomolgus).
T7 construct: also called cynomolgus DR5; cy DR5
The experiment is described as above.
With B6, binding was characterised by a dissociation constant (Kd) of 2 nM.

A further experiment deals with T1, Recombinant human DcR2-Fc. Nature of the experiment: SPR, receptor-Fc on CM5 chip.
Turning to B9, the binding result is “no binding (tested: 500, 100 and 25 nM)”.

For the molecule B10, the binding result is “no binding (tested: 500, 100 and 25 nM)”.

As for B11, the binding result was “no binding (tested: 500, 100 and 25 nM)”.

With B12, the binding result is “no binding (tested: 500, 100 and 25 nM)”.

For B13, the binding result is “no binding (tested: 500, 100 and 25 nM)”.

Another experiment deals with T2, Recombinant human DcR1-Fc. Nature of the experiment: SPR, receptor-Fc on CM5 chip.
Regarding B9, the binding result is “no binding (tested: 500, 100 and 25 nM)”.

As for B10, the binding result is “no binding (tested: 500, 100 and 25 nM)”.

Consider B11, for which the binding result was “no binding (tested: 500, 100 and 25 nM)”.

Turning to B12, the binding result was “no binding (tested: 500, 100 and 25 nM)”.

Take B13: the binding result was “no binding (tested: 500, 100 and 25 nM)”.

The next experiment deals with T3, Recombinant human OPG-Fc. Put plainly: SPR, receptor-Fc on CM5 chip.
For the molecule B9, the binding result was “no binding (tested: 500, 100 and 25 nM)”.

Consider B10, for which the binding result was “no binding (tested: 500, 100 and 25 nM)”.

As for B11, the binding result is “no binding (tested: 500, 100 and 25 nM)”.

With B12, the binding result was “no binding (tested: 500, 100 and 25 nM)”.

On to B13, for which the binding result is “no binding (tested: 500, 100 and 25 nM)”.

The target in another experiment is T8, Recombinant human DR4-Fc (human, UniProt O00220 109-239).
T8 construct: bought; also called huDR4Fc; human DR4 (TNFRSF10A); Fc part of the bought chimera not given
Put plainly: SPR, receptor-Fc on CM5 chip.
Turning to B9, the binding result is “no binding (tested: 500, 100 and 25 nM)”.

Consider B10, for which the binding result is “no binding (tested: 500, 100 and 25 nM)”.

As for B11, the binding result was “no binding (tested: 500, 100 and 25 nM)”.

Regarding B12, the binding result is “no binding (tested: 500, 100 and 25 nM)”.

For the molecule B13, the binding result was “no binding (tested: 500, 100 and 25 nM)”.

Another experiment addresses T6, human DR5 (recombinant, fusion format …). Put plainly: SPR (Biacore), 2+2 over immobilised DR5 ECD.
Take B6: the Avidity was 0.08 nM.

In the next experiment the target is T9, murine DR5 ECD-AcTev-hu Fc-Avi (murine, UniProt Q9QZM4 53-153).
T9 construct: range 53-153; also called mouse DR5
Nature of the experiment: SPR, biotinylated DR5 on SA chip.
In the case of B9, the binding result is “no binding (tested: 500, 100 and 25 nM)”.

For the molecule B10, the binding result was “no binding (tested: 500, 100 and 25 nM)”.

In the case of B11, the binding result is “no binding (tested: 500, 100 and 25 nM)”.

Regarding B12, the binding result was “no binding (tested: 500, 100 and 25 nM)”.

With B13, the binding result was “no binding (tested: 500, 100 and 25 nM)”.

For the next experiment, the target named is T4, Human FAP ectodomain + poly-lys-tag + …. Nature of the experiment: SPR (Biacore), bispecific antibody bound to immobilised human DR5-Fc, recombinant human FAP as second analyte (simultaneous binding).
For the molecule B5, the binding result was “binds”.

Turning to B6, the binding result is given as “binds”.

In a further experiment the target is T10, cynomolgus DR5 in the TagLite assay (cynomolgus).
T10 construct: also called cy DR5 (TagLite)
Nature of the experiment: TagLite TR-FRET on cells.
Regarding B5, the Avidity is 0.4 nM.

The molecule B6 gave an Avidity of 0.7 nM.

In the case of B4, the Avidity worked out at 0.6 nM.
